Experimental data published in the supplement of paper PMC10567573.

B1: ZNF511 (parent)
chain: FDALDDYEHHYHTLHGNVCSFCKR
B2: C6orf223 (parent)
chain: TLARMSRRTRGPVERAAAAAAAAA

Variants of: B1
Experiment: protein stability index of a GFP-peptide fusion (GPS, HEK-293T) (PSI 1-6); higher = more stable
Conditions: c terminus: a fixed tail appended
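Also: lentivirally expressed fusions sorted by FACS into six bins by GFP to DsRed ratio, PSI derived from sequencing read proportions per bin multiplied by bin number.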

Protein stability index of substitutions, site by site:
H10: D 3.85 | I 2.53 | K 3.24 | L 2.62 | R 3.59 | V 2.46 | N 3.37 | T 3.4 | S 3.06 | A 2.94 | Y 3.22 | W 3.04 | E 3.74 | F 2.92 | M 2.65 | G 3.73 | P 2.76 | C 4.7 | Q 3.48
L4: P 3.54 | D 4.2 | T 4.44 | Y 3.16 | G 4.11 | V 3.75 | F 4 | E 4.41 | I 3.56 | N 4.51 | R 3.93 | C 3.94 | S 4.6 | Q 4.18 | K 4.39 | W 3.43 | M 3.81 | H 4.48 | A 4.1
F1: S 4.51 | A 4.38 | W 3.7 | L 4.31 | M 4.59 | C 4.38 | P 4.04 | N 4.75 | I 3.43 | D 4.31 | E 4.64 | R 5.08 | V 4.22 | Y 3.59 | H 4.46 | T 4.28 | K 4.28 | Q 4.11 | G 3.74
H12: Q 3.3 | K 2.58 | P 3.31 | M 2.73 | S 3.12 | N 3.27 | T 3.29 | I 2.16 | G 3.58 | R 3.36 | E 2.95 | Y 2.48 | A 2.96 | V 3.27 | C 4.18 | L 2.71 | F 2.9 | W 2.38 | D 4.41
A3: D 3.72 | M 3.56 | Y 3.54 | C 4.06 | Q 4.04 | K 2.87 | T 3.56 | L 3.69 | R 3.81 | W 2.87 | P 3.7 | S 3.77 | E 4.08 | V 3.59 | I 3.31 | G 3.96 | N 3.63 | F 3.19 | H 3.63
T13: N 3.56 | M 3.5 | C 4.5 | L 3.24 | P 4.19 | A 3.82 | H 4.17 | Y 2.92 | V 3.77 | G 4.15 | Q 3.66 | R 3.07 | W 2.78 | E 4.27 | D 3.91 | I 3.19 | S 3.54 | F 2.65 | K 3.4
H9: S 3.44 | T 3.47 | V 3.18 | E 3.71 | I 3.39 | D 3.69 | R 4.1 | Q 3.43 | P 3.8 | W 2.67 | F 3.03 | A 3.57 | C 4.26 | K 3.43 | Y 2.65 | N 2.8 | G 4 | M 3.44 | L 2.86
D2: L 3.18 | V 2.06 | R 3.19 | T 3.18 | W 2.3 | M 3.01 | S 3.51 | G 4.03 | E 4.27 | N 3.06 | Q 2.93 | P 3.11 | A 3.4 | H 2.17 | K 3.78 | Y 3.1 | C 3.17 | I 3.62 | F 2.48
D5: H 3.9 | S 3.24 | R 3.5 | A 4.03 | G 4.12 | P 4.11 | E 3.77 | W 2.98 | I 3.45 | T 3.7 | K 3.09 | V 3.54 | Q 3.86 | C 4 | N 3.98 | Y 3.1 | L 3.18 | F 2.5 | M 3.14
H15: Q 3.96 | T 4.48 | V 3.73 | W 3.3 | A 3.86 | M 3.88 | I 3.55 | F 2.26 | K 3.61 | L 2.6 | E 4.36 | N 3.96 | S 4.13 | Y 3.23 | G 3.92 | C 3.89 | R 3.83 | D 3.97 | P 3.3
Y7: V 3.98 | H 4.43 | A 3.4 | G 4.16 | S 4.05 | P 3.97 | T 4.16 | N 4.25 | L 3.54 | W 3.71 | I 4.18 | K 4.44 | D 4.22 | M 4.29 | R 4.23 | F 3.24 | E 4.31 | C 4.92 | Q 4.25
Y11: C 4.81 | Q 4.93 | E 4.55 | L 4.05 | H 4.14 | S 4.14 | N 4.38 | R 4.61 | I 4.2 | A 4.39 | T 4.62 | P 3.22 | F 3.19 | K 4.28 | W 2.34 | G 4.01 | V 4.49 | D 4.64 | M 4.45
D6: F 2.21 | L 4.68 | G 3.69 | I 3.51 | K 2.97 | Y 2.59 | R 3.52 | H 3.96 | N 3.91 | S 3.95 | A 3.54 | Q 3.56 | W 1.67 | V 2.98 | C 4.28 | P 3.74 | M 3.03 | E 3.43 | T 3.27
L14: E 4.48 | K 3.54 | P 4.71 | A 3.98 | G 4.22 | M 3.99 | I 3.92 | R 3.63 | C 4.85 | T 4.04 | D 4.33 | Y 3.81 | H 4.24 | V 4.53 | Q 4.28 | W 3.17 | F 3.59 | N 4.18 | S 4.08
E8: G 3.55 | P 3.81 | N 3.3 | V 2.87 | L 2.74 | F 2.57 | H 3.63 | C 4.43 | S 3.35 | Y 2.79 | W 2.69 | I 2.51 | T 3.67 | K 3.05 | D 3.82 | M 2.97 | R 3.55 | A 3.66 | Q 3.63
G16: V 2.96 | L 2.98 | F 2.9 | T 3.47 | W 2.66 | H 3.5 | E 3.75 | S 3.37 | Y 2.85 | P 3.46 | K 3.22 | N 3.72 | A 3.72 | I 3.15 | D 3.87 | C 3.42 | M 3.15 | R 3.47 | Q 3.3
N17: D 4.23 | C 2.5 | A 3.55

Variants of: B2
Experiment: as above
Conditions: c terminus: a fixed tail appended

Protein stability index: each site, then its substitutions
A19: K 3.43
A18: M 1.56 | P 4.09 | I 3.43 | L 2.92 | N 3.25 | Y 2.13 | S 2.48
L2: E 4.7
A23: Y 3.26 | W 2.18 | C 3.99 | T 4.46 | I 3.49 | L 3.09
R4: I 1.94
A24: P 2.23
A22: W 2.68 | C 3.33 | I 2.23 | Y 2.66 | K 1.97
A21: W 2.83 | M 1.95
A17: T 3.76 | Y 4.15
A16: S 3.8
